We go through eight molecules from patent US7250488 (Kyowa Kirin, dated 2007).

Assay [1] addresses T1, GAL4-β-catenin fusion protein (GAL4 BD fused with mβ-catenin arm, residues 141 to 664) (yeast; mouse, UniProt P04386 1-147; Q02248 141-664).
T1 construct: Two-hybrid bait expressed in yeast HF7C; also called bait for mβ-catenin arm
Put plainly: yeast two-hybrid, β-galactosidase activity. The text has this:
Specifically, both mouse fetal cDNA library for the two-hybrid system and plasmid GAL4-β-catenin prepared in (1) were introduced in yeast *Saccharomyces cerevisiae* HF7C strain (Clontech). HF7C strain is a yeast strain that is tryptophan-, leucine-, and histidine-auxotrophic, and, on the chromosome, has as a reporter gene a gene involved in histidine biosynthesis, HIS3, which has been ligated downstream of GAL1 promoter to which GAL4 BD can bind, as well as has of *E. coli*-derived β-galactosidase gene lazZ ligated downstream of a nucleotide sequence where GAL4 BD can bind (Gene, 212, 197 (1998)). A transformant containing both plasmid GAL4-β-catenin and cDNA clone for protein capable of binding to mβ-catenin arm and expresses the respective fusion proteins, is non-auxotrophic for histidine and is positive in β-galactosidase activity, because GAL4 BD is placed adjacent to GAL4 AD due the binding between mβ-catenin arm and the binding protein, the transcriptions of HIS3 gene and lacZ gene, downstream of the nucleotide sequence to which GAL4 BD binds, are activated. Four clones were finally selected, as colonies positive in β-galactosidase activity from 2.3 ×10^7 transformants which were grown on a medium without any of leucine, histidine, and tryptophan.
Each of these expression plasmids for fusion proteins of GAL4 AD and ICAT mutants was introduced together with the bait plasmid GAL4-β-catenin for mβ-catenin arm into yeast HF7C strain in the same manner as in Example 1, and then the binding of each ICAT mutant with β-catenin was evaluated based on the presence of β-galactosidase activity in the transformants.

Assay [2] concerns the target T2, mouse β-catenin (mouse, UniProt Q02248 2-781).
T2 construct: mature; also called ^35S-labeled β-catenin
T2 sequence (looked up): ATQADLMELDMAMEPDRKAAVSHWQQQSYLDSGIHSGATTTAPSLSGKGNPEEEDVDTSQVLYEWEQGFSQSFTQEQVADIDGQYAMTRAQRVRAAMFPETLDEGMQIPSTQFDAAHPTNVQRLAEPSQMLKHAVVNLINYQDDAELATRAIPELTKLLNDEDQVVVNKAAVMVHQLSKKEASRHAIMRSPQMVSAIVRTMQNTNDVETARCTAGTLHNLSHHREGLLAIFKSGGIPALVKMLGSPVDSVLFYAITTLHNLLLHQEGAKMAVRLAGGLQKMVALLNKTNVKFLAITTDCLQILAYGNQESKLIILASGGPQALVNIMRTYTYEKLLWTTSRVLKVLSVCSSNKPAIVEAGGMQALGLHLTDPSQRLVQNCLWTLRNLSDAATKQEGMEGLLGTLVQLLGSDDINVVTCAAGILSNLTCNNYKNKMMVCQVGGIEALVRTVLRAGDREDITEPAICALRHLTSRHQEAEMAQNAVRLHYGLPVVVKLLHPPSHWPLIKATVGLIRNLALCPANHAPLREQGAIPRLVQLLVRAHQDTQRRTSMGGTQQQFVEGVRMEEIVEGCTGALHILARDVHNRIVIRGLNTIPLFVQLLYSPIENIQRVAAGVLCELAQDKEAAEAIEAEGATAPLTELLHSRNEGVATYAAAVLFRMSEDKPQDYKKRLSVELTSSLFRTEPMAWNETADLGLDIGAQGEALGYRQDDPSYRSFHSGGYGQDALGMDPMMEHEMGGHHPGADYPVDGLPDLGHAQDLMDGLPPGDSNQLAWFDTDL
Put plainly: immunoprecipitation with anti-ICAT antibody from mouse brain lysate, Western blotting with anti-β-catenin antibody. The procedure: In the experiment for the detection of ICAT with immunoprecipitation and Western blotting using mouse brain lysate in Example 6, immunoprecipitation was carried out with the anti-ICAT antibody, and then Western blotting was performed with the anti-β-catenin monoclonal antibody (Transduction Laboratory; animal used for the immunization is mouse) as a primary antibody for the detection. […] However, when, in this experiment, the anti-ICAT antibody, which had previously been reacted to GST/ICAT, was used in the immunoprecipitation, the band of β-catenin was not detected because of inhibition of immunoprecipitation.
In general terms: In western blotting, separated proteins are transferred to a membrane and probed.

Assay [3] concerns the target T3, N-terminal portion of mouse β-catenin (residues 1 to 140), ^35S-labeled (mouse, UniProt Q02248 1-140).
T3 construct: range 1-140; Translated in vitro with ^35S-methionine
T3 sequence (looked up): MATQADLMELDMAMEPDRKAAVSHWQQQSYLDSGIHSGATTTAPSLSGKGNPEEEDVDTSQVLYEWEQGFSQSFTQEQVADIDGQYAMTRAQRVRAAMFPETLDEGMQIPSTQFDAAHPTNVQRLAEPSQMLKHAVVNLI
Description: GST/ICAT pull-down of ^35S-labeled in vitro translated protein, autoradiography. On the procedure: (§1) The GST/ICAT-expressing E. coli as well as control GST-expressing E. coli prepared in Example 3 were cultured to obtain the respective bacterial lysates. Glutathione-Sepharose 4B (Amersham-Pharmacia Biotech) was added to these bacterial lysates, and […] or GST was adsorbed on it to isolate it. The GST/ICAT- or GST-adsorbed glutathione-Sepharose 4B was reacted to the above-mentioned ^35S-labeled β-catenin in buffer A containing 0.1% Triton X-100 at 4° C. for 2 hours. After the glutathione-Sepharose 4B was washed well with buffer A and then SDS-PAGE sample buffer was added thereto to elute the bound protein to the sample buffer. The eluate was used as a sample in SDS-PAGE in which the gel concentration was 15% and then the gel was visualized by autoradiography. […] Accordingly, it has been verified that GST/ICAT directly binds to β-catenin in vitro and that the site responsible for the binding to β-catenin is located within the ICAT moiety of GST/ICAT.
(§2) The region of β-catenin responsible for the binding with ICAT was determined as follows. DNA fragments encoding the region of armadillo domain of mouse β-catenin (residues 141 to 664 in the amino acid sequence), N-terminal portion (residues 1 to 140 in the amino acid sequence), and C-terminal portion (residues 665 to 782 in the amino acid sequence) were amplified by PCR. […]

Assay [4] concerns the target T4, C-terminal portion of mouse β-catenin (residues 665 to 782), ^35S-labeled (mouse, UniProt Q02248 665-781).
T4 construct: range 665-782; Translated in vitro with ^35S-methionine
T4 sequence (looked up): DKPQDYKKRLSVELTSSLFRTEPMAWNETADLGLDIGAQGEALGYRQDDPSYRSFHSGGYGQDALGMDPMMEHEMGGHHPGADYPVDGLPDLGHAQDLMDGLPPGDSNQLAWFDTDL
Described as above. The procedure: as §1, §2

Assay [5] concerns the target T2, mouse β-catenin. Put plainly: GST fusion pull-down in vitro, as in Example 8. On the procedure:
as §1, with “Analysis of Binding Between ICAT and β-catenin (1) Detection of the Direct Binding In Vitro The direct binding of ICAT to β-catenin was verified as follows. ^35S-labeled β-catenin was translated and synthesized from mouse β-catenin mRNA in vitro by using ^35S-labeled methionine TNT-reticulocyte lysate system (Promega). The GST/ICAT-expressing” for “The GST/ICAT-expressing”, “of GST/ICAT. […]” for “of GST/ICAT.”

Changes are numbered by the printed parent chain.

B1: ICAT(1-41), GAL4 AD fusion (other, not shown: large carriers)
chain: MNREGAPGKSPEEMYIQQKVRVLLMLRKMGSNLTASEEEFL
notes: Mouse ICAT deletion mutant used as a two-hybrid prey; also called (b) ICAT(1-41)
Take B1: the binding result in assay [1] was “no binding”.

B2: mouse ICAT (inhibitor of β-catenin and TCF) (other)
chain: MNREGAPGKSPEEMYIQQKVRVLLMLRKMGSNLTASEEEFLRTYAGVVSSQLSQLPQHSIDQGAEDVVMAFSRSETEDRRQ
notes: Untagged full-length mouse ICAT (81 amino acids); It was tested expressed from pMKITneo in COS-7 and other animal cells, translated in vitro in reticulocyte lysate, and as the endogenous protein of mouse brain; also called 9-kDa protein
B2: the binding result with mouse β-catenin [2] is listed as “binds”.

B3: GST/ICAT (fusion protein between GST and ICAT) (other)
chain: B2 chain
notes: Mouse ICAT cDNA was subcloned between EcoRI/SalI of pGEX5X-1, so ICAT sits on the C-terminal side of GST; Expressed in E. coli; not shown: glutathione S-transferase (GST) as encoded by vector pGEX5X-1
Take B3: the binding result in assay [3] and in assay [4] was “no binding” each time.

B4: ICAT(E37-39A), GAL4 AD fusion (other, not shown: large carriers)
chain: B2 chain with E37A, E38A, E39A
notes: The glutamic acid residues 37, 38 and 39 are converted to alanine; Used as a two-hybrid prey; also called (j) ICAT(E37-39A)
As for B4, the binding result in assay [1] is listed as “no binding”.

B5: ICAT(E37-39A) expressed as a GST fusion protein (other)
chain: B2 chain with E37A, E38A, E39A
notes: Expressed in E. coli; not shown: glutathione S-transferase (GST); made in the same manner as GST/ICAT
As for B5, the binding result in the assay with mouse β-catenin [5] is “no binding”.

B6: ICAT (42-81), GAL4 AD fusion (other, not shown: large carriers)
chain: RTYAGVVSSQLSQLPQHSIDQGAEDVVMAFSRSETEDRRQ
notes: Mouse ICAT deletion mutant used as a two-hybrid prey; also called (e) ICAT(42-81)
As for B6, the binding result in assay [1] is reported as “no binding”.

B7: ICAT(21-81), GAL4 AD fusion (other, not shown: large carriers)
chain: RVLLMLRKMGSNLTASEEEFLRTYAGVVSSQLSQLPQHSIDQGAEDVVMAFSRSETEDRRQ
notes: Mouse ICAT deletion mutant used as a two-hybrid prey; also called (d) ICAT(21-81)
B7: in assay [1], the binding result is “no binding”.

B8: ICAT (21-61), GAL4 AD fusion (other, not shown: large carriers)
chain: RVLLMLRKMGSNLTASEEEFLRTYAGVVSSQLSQLPQHSID
notes: Mouse ICAT deletion mutant used as a two-hybrid prey; also called (g) ICAT(21-61)
Turning to B8, the binding result in assay [1] is reported as “no binding”.
